Series [1] deals with T1, UL37C (571-1123) (Human herpesvirus 1, UniProt P10221).
T1 construct: bacterial purified UL37 (571-1123) was treated with N-methylacetamide; His; made in house; host or cells: E. coli BL21(DE3)
Kind of series: Cysteine labeling with electrophile and tandem mass spectrometry. Type of series: biochemical, HSV-1. The following applies: for C819 labeled by CNM: 45 minutes. The protocol:
[…] Samples were then blocked with Iodoacetamide (Sigma) (50 mM) at room temperature for 1 h and subjected to Mass Spectrometry analysis (Poochon Scientific).

Series [2] has as its system RIG-I. Kind of series: Two-dimensional gel electrophoresis of RIG-I deamidation in cells. Type of series: cell-based, human. The following applies: 293T/RIG-I cells transfected with UL37, DON 10 μM. The protocol:
Cells (1×10^6) were lysed in 150 μl rehydration buffer (8 M Urea, 2% CHAPS, 0.5% IPG Buffer, 0.002% bromophenol blue) by three pulses of sonication and whole cell lysates were centrifuged at 20,000 g for 15 min. Supernatants were loaded to IEF strips for focusing with a program comprising: 20 V, 10 h (rehydration); 100 V, 1 h; 500 V, 1 h; 1000 V, 1 h; 2000 V, 1 h; 4000 V, 1 h; 8000 V, 4 h. After IEF, strips were incubated with SDS equilibration buffer (50 mM Tris-HCl [pH8.8], 6 M urea, 30% glycerol, 2% SDS, 0.001% Bromophenol Blue) containing 10 mg/ml DTT for 15 min and then SDS equilibration buffer containing 2-iodoacetamide for 15 min. Strips were washed with SDS-PAGE buffer, resolved by SDS-PAGE, and analyzed by immunoblotting.

Series [3] has as its system RIG-I. Put plainly: In vitro ATPase activity assay. The following applies: purified RIG-I proteins; for ATPase activity kcat: at physiological ATP concentrations; for ability to hydrolyze ATP: with or without 5′ppp-RNA. It is filed as biochemical, human. The protocol: Purified RIG-I or RIG-I mutants were incubated with 5′-ppp-dsRNA (Invivogen) at 37° C. for 20 min in ATPase reaction buffer (50 mM Tris-HCl, pH 7.5, 2.5 mM MgCl2, and ATP. Released phosphates were measured using a PiColorLock™ phosphate detection reagent (Innova Biosciences). For reactions with varying concentrations of ATP, the concentrations of RIG-I proteins and RNA were 20 nM and 80 nM, respectively. For reactions with varying concentrations of the RNA, the concentrations of RIG-I proteins and ATP were 20 nM and 500 μM, respectively.
Purified RIG-I or RIG-I mutants were incubated with 5′-ppp-dsRNA (Invivogen) at 37° C. for 20 min in ATPase reaction buffer (50 mM Tris-HCl, pH 7.5, 2.5 mM MgCl2, and ATP). Released phosphates were measured using a PiColorLock™ phosphate detection reagent (Innova Biosciences). For reactions with varying concentrations of ATP, the concentrations of RIG-I proteins and RNA were 20 nM and 80 nM, respectively. For reactions with varying concentrations of the RNA, the concentrations of RIG-I proteins and ATP were 20 nM and 500 μM, respectively.

The test system of series [4] is HSV-1. Kind of series: HSV-1 plaque assay in HEK293 cells stably expressing RIG-I wild-type or mutants. Type of series: cell-based. The following applies: HEK293 stable cells, HSV-1 MOI=0.5.
Series [5] concerns 5′-triphosphate 19mer dsRNA. Put plainly: RNA electrophoresis mobility shift assay (EMSA). Type of series: binding. The following applies: 32P-labeled 5′-triphosphate 19mer dsRNA. The protocol:
RNA EMSA was performed as previously described (Takahasi et al., 2008). 5′-ppp-dsRNA and control dsRNA were purchased from Invivogen and bottom strands were labeled with γ-[P^32]ATP by T4 polynucleotide kinase (NEB). Purified RIG-I and RIG-I mutants were incubated with dsRNA at room temperature for 15 min. Binding buffer contains 20 mM Tris-HCl (pH=8.0), 1.5 mM MgCl2 and 1.5 mM DTT. Unlabeled ppp-dsRNA was used as competitor at 500-fold in excess. The reaction mixtures were run on 5% native polyacrylamide gels at a constant voltage of 200 V. Gels were dried and subjected to phosphorimaging.
In general terms: In EMSA bound probe runs differently from free probe, usually more slowly.

Series [6] deals with PRDIII promoter. Kind of series: Dual-luciferase reporter assay (PRDIII, SeV infection). Type of series: cell-based, human. The following applies: 293T cells, SeV 100 HAU/ml. The protocol:
HEK293T cells, seeded in 24-well plates (˜50% cell density), were transfected with IFN-β, PRDIII (ISRE) or NF-κB reporter plasmid cocktail (50 ng of luciferase reporter plasmid and 5 ng of pRL Renilla luciferase control vector) and expression plasmid (empty plasmid, one or multiple plasmids depending on the experiment) by calcium phosphate precipitation. Cells were infected with SeV (100 HA/ml), HSV-1 for 16 h, transfected with Poly [I:C] for 16 h or directly harvested 30-36 h post transfection. Whole cell lysates were used to determine the activity of firefly luciferase and renilla luciferase by a microplate reader (FLUOstar Omega).
Background: A reporter such as luciferase makes a cellular process visible.

Numbering of substitutions follows the chain as printed. Names may count otherwise.

On to `O=C(CCl)NCO` [CNM, 2-Chloro-N-(hydroxymethyl) acetamide], for which the “C819 labeled by CNM” value in series [1] (CNM 1 μM) is 38.3%; in series [1] (CNM 10 μM) it was 42.5%. Further, in series [1] (CNM 1 and 10 μM), the “C850 labeled by CNM” value is listed as less than 10%.

Regarding `[N-]=[N+]=CC(=O)CC[C@H](N)C(=O)O` [DON, 6-diazo-5-oxo-L-norleucine, reference compound], the “UL37-induced RIG-I deamidation in cells” value in series [2] is on record as “inhibited RIG-I deamidation”.

B1: RIG-I-WT: wild-type RIG-I polypeptide, SEQ ID NO. 3 (protein, listed as Homo sapiens)
chain: MTTEQRRSLQAFQDYIRKTLDPTYILSYMAPWFREEEVQYIQAEKNNKGPMEAATLFLKFLLELQEEGWFRGFLDALDHAGYSGLYEAIESWDFKKIEKLEEYRLLLKRLQPEFKTRIIPTDIISDLSECLINQECEEILQICSTKGMMAGAEKLVECLLRSDKENWPKTLKLALEKERNKFSELWIVEKGIKDVETEDLEDKMETSDIQIFYQEDPECQNLSENSCPPSEVSDTNLYSPFKPRNYQLELALPAMKGKNTIICAPTGCGKTFVSLLICEHHLKKFPQGQKGKVVFFANQIPVYEQQKSVFSKYFERHGYRVTGISGATAENVPVEQIVENNDIIILTPQILVNNLKKGTIPSLSIFTLMIFDECHNTSKQHPYNMIMFNYLDQKLGGSSGPLPQVIGLTASVGVGDAKNTDEALDYICKLCASLDASVIATVKHNLEELEQVVYKPQKFFRKVESRISDKFKYIIAQLMRDTESLAKRICKDLENLSQIQNREFGTQKYEQWIVTVQKACMVFQMPDKDEESRICKALFLYTSHLRKYNDALIISEHARMKDALDYLKDFFSNVRAAGFEEIEQDLTQRFEEKLQELESVSRDPSNENPKLEDLCFILQEEYHLNPETITILFVKTRALVDALKNWIEGNPKLSFLKPGILTGRGKTNQNTGMTLPAQKCILDAFKASGDHNILIATSVADEGIDIAQCNLVILYEYVGNVIKMIQTRGRGRARGSKCFLLTSNAGVIEKEQINMYKEKMMNDSILRLQTWDEAVFREKILHIQTHEKFIRDSQEKPKPVPDKENKKLLCRKCKALACYTADVRVIEECHYTVLGDAFKECFVSRPHPKPKQFSSFEKRAKIFCARQNCSHDWGIHVKYKTFEIPVIKIESFVVEDIATGVQTLYSKWKDFHFEKIPFDPAEMSK
Regarding B1, the ATPase activity kcat in series [3] stood at 944 s⁻¹. Also, the “reduction of HSV-1 replication / titer” value in series [4] was roughly 50%.

B2: RIG-I-N495D (protein, UniProt O95786 1-925, looked up, variant N495D)
Antiviral innate immune …: B1 chain with N495D, E580D
Take B2: the “ability to hydrolyze ATP” value in series [3] is listed as “basal or no ATPase activity”. Further, in series [5], the “RNA-binding (RIG-I:RNA complex formation)” value is listed as “comparable RNA-binding affinity to RIG-I-WT”.

B3: RIG-I-N549D (protein, UniProt O95786 1-925, looked up, variant N549D)
Antiviral innate immune …: B1 chain with N549D, E580D
Regarding B3, the “ability to hydrolyze ATP” value in series [3] is “basal or no ATPase activity”.

B4: RIG-I-DD (protein)
chain: B1 chain with N495D, N549D
modifications: left off: small tags and cut ends
For B4, in series [3], the ATPase activity kcat is 32.6 s⁻¹ and the “ability to hydrolyze ATP” value was “completely lost its ability to hydrolyze ATP”. Besides, the “RNA-binding (RIG-I:RNA complex formation)” value in series [5] was “significantly impaired in forming the fast migrating RIG-I:RNA complex”. In series [4], the “reduction of HSV-1 replication / titer” value was “marginal effect”.

B5: C850S (protein)
chain: MADRGLPSEAPVVTTSPAGPPSDGPMQRLLASLAGLRQPPTPTAETANGADDPAFLATAKLRAAMAAFLLSGTAIAPADARDCWRPLLEHLCALHRAHGLPETALLAENLPGLLVHRLVVALPEAPDQAFREMEVIKDTILAVTGSDTSHALDSAGLRTAAALGPVRVRQCAVEWIDRWQTVTKSCLAMSPRTSIEALGETSLKMAPVPLGQPSANLTTPAYSLLFPAPFVQEGLRFLALVSNRVTLFSAHLQRIDDATLTPLTRALFTLALVDEYLTTPERGAVVPPPLLAQFQHTVREIDPAIMIPPLEANKMVRSREEVRVSTALSRVSPRSACAPPGTLMARVRTDVAVFDPDVPFLSSSALAVFQPAVSSLLQLGEQPSAGAQQRLLALLQQTWTLIQNTNSPSVVINTLIDAGFTPSHCTHYLSALEGFLAAGVPARTPTGHGLGEVQQLFGCIALAGSNVFGLAREYGYYANYVKTFRRVQGASEHTHGRLCEAVGLSGGVLSQTLARIMGPAVPTEHLASLRRALVGEFETAERRFSSGQPSLLRETALIWIDVYGQTHWDITPTTPATPLSALLPVGQPSHAPSVHLAAATQIRFPALEGIHPNVLADPGFVPYVLALVVGDALRATCSAAYLPRPVEFALRVLAWARDFGLGYLPTVEGHRTKLGALITLLEPAARGGLGPTMQMADNIEQLLRELYVISRGAVEQLRPLVQLQPPPPPEVGTSLLLISMYALAARGVLQDLAERADPLIRQLEDAIVLLRLHMRTLSAFFECRFESDGRRLYAVVGDTPDRLGPWPPEAMGDAVSQYCSMYHDAKRALVASLASLRSVITETTAHLGVSDELAAQVSHEDNVLAVVRREIHGFLSVVSGIHARASKLLSGDQVPGFCFMGQFLARWRRLSACYQAARAAAGPEPVAEFVQELHDTWKGLQTERAVVVAPLVSSADQRAAAIREVMAHAPEDAPPQSPAADRVVLTSRRDLGAWGDYSLGPLGQTTAVPDSVDLSRQGLAVTLSMDWLLMNELLRVTDGVFRASAFRPLAGPESPRDLEVRDAGNSLPAPMPMDAQKPEAYGHGPRQADREGAPHSNTPVEDDEMIPEDTVAPPTDLPLTSYQ
For the molecule B5, in series [6], the “blockade of SeV-induced PRDIII promoter activation” value was “greatly impaired blockade of PRDIII induction by SeV”.

The values are drawn from US10596234B2, “Compositions and methods to inhibit viral replication” (priority 2016, dated 2020).
